According to patent publication US20070122405A1 (Human Genome Sciences, published 2007):

B1: 43E2, fully human IgG4 CCR5 monoclonal antibody (secreted by cell line NS0mAb43E2) (antibody, V domains shown)
VH: QVQLVESGGGVVQPGRSLRLSCAASGFTLSGYGMHWVRQAPGKGLEWVSLISYDGSNKYYADSVKGRFTISRDDSKNTLYLRMNSLRAEDTAVYYCARGRNDFWSGYYTAGMDVWGQGTTVTVSS
VL: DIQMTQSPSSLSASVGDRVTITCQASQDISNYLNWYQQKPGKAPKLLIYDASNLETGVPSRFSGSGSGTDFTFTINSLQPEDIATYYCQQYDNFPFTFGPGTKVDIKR
notes: also called Eu-43E2
B2: 43E2/AK38181, fully human IgG4 CCR5 monoclonal antibody (secreted by cell line NS0mAb43E2/AK38181) (antibody, V domains shown)
VH: B1 VH
VL: DIQMTQSPSSLSASVGDRVTITCQASQGIRKYLNWYQQKPGKVPKLLIYDASNLETGVPSRFSGSGSGTDFTFAISSLQPEDTATYYCQQYDDFPFTFGQGTRLEIKR
notes: also called Eu-43E2/AK38181

Tests used:
[1] = target: T1, Human G-protein Chemokine Receptor (CCR5) HDGNR10 (human, UniProt P51681 1-352); assay: cell-based or functional assay
T1 sequence (P51681 whole entry): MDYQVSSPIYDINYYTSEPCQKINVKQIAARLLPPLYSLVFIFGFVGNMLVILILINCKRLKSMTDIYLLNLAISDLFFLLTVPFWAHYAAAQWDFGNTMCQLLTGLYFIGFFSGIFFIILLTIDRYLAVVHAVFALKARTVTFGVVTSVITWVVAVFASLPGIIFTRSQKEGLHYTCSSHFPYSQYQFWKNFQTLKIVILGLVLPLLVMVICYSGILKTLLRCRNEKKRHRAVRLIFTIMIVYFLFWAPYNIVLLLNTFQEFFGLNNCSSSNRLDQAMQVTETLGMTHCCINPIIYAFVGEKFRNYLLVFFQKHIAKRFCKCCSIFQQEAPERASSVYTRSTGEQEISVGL

[2] = target: T1, Human G-protein Chemokine Receptor …; assay: cell-based or functional assay; remark: listed apart in the source
[3] = target: T1, Human G-protein Chemokine Receptor …; assay: cell-based or functional assay; remark: listed apart in the source
[4] = target: T1, Human G-protein Chemokine Receptor …; assay: cell-based or functional assay; remark: listed apart in the source
[5] = target: T1, Human G-protein Chemokine Receptor …; assay: cell-based or functional assay; remark: listed apart in the source
[6] = target: T1, Human G-protein Chemokine Receptor …; assay: cell-based or functional assay; remark: listed apart in the source
[7] = target: T1, Human G-protein Chemokine Receptor …; assay: saturation binding of Eu-labelled antibody to CEM.NKR-CCR5 transfected cells, time resolved fluorometry
Text: (§1) The 43E2 and 43E2/AK38181 antibodies were labeled with Europium (Eu) using Dissociation-Enhanced Lanthanide Fluorescence Immunoassay (DELFIA™) Eu-labeling kit (Catalog #1244-302, Perkin Elmer Life Sciences, Boston, Mass.) following the manufacturer's instructions. The labeling agent is the Eu-chelate of N1-(p-isothiocynateobenzyl) diethylenetriamine N1, N2, N3, N3-tetraacetic acid (DTTA). The DTTA group forms a stable complex with Eu³⁺ and the isothiocynate group reacts with primary amino groups on the antibodies at alkaline pH to form a stable, covalent thiourea bond. […] The Eu³⁺ content and protein concentration of each labeled antibody was determined.
(§2) The Eu-43E2 and Eu-43E2/AK38181 saturation binding assays were performed in 96 well plates, with 0.3-0.5 million CEM.NKR-CCR5 transfected cells per well, and various concentrations of Eu-43E2 and Eu-43E2/AK38181 in the absence or presence of 100-fold excess of unlabeled CCR5mAb004 for 1 hour at room temperature (RT). […] The fluorescence emitted from the released Eu was determined by time resolved fluorometry (VICTOR 1420 DELFIA™ fluorometer, Wallac Oy, Turku, Finland). The data were analyzed on Prizm software (GraphPad Software, San Diego, Calif.) to determine the equilibrium dissociation constant (Kd).

[8] = target: T1, Human G-protein Chemokine Receptor …; assay: saturation binding of Eu-labelled antibodies to CEM.NKR-CCR5 transfected cells
Text: as §1, §2

Binder | IC50 of entry of HIV-1-luciferase pseudotyped with env of 92BR025 (clade B) into U87/CD4/CCR5 cells [2] | IC50 of entry of HIV-1-luciferase pseudotyped with env of 92RW009 (clade A) into U87/CD4/CCR5 cells [2] | IC50 of entry of HIV-1-luciferase pseudotyped with env of 92TH001 (clade E) into U87/CD4/CCR5 cells [2] | IC50 of entry of HIV-1-luciferase pseudotyped with env of 92UG005 (clade D) into U87/CD4/CCR5 cells [2] | IC50 of entry of HIV-1-luciferase pseudotyped with env of 93IN101 (clade C) into U87/CD4/CCR5 cells [2] | IC50 of entry of HIV-1-luciferase pseudotyped with env of 301657 (clade B) into U87/CD4/CCR5 cells [2] | IC50 of entry of HIV-1-luciferase pseudotyped with env of 301714 (clade B) into U87/CD4/CCR5 cells [2] | IC50 of entry of HIV-1-luciferase pseudotyped with env of 302056 (clade B) into U87/CD4/CCR5 cells [2] | IC50 of entry of HIV-1-luciferase pseudotyped with env of 'Enfuvirtide Resistant' (B/Enfuvirtide Resistant) into U87/CD4/CCR5 cells [2] | IC50 of entry of HIV-1-luciferase pseudotyped with env of ASJM108 (clade B) into U87/CD4/CCR5 cells [2] | IC50 of entry of HIV-1-luciferase pseudotyped with env of ASM80 (clade B) into U87/CD4/CCR5 cells [2] | IC50 of entry of HIV-1-luciferase pseudotyped with env of DU151 (clade C) into U87/CD4/CCR5 cells [2] | IC50 of entry of HIV-1-luciferase pseudotyped with env of JRCSFSDM DIM (B/Enfuvirtide Resistant) into U87/CD4/CCR5 cells [2] | IC50 of entry of HIV-1-luciferase pseudotyped with env of JRFL (clade B) into U87/CD4/CCR5 cells [2] | IC50 of entry of HIV-1-luciferase pseudotyped with env of RU570 (clade G) into U87/CD4/CCR5 cells [2] | Mean IC50 over the panel of HIV-1-luciferase pseudotyped viruses, entry into U87/CD4/CCR5 cells [2] | Median IC50 over the panel of HIV-1-luciferase pseudotyped viruses, entry into U87/CD4/CCR5 cells [2] | Median IC50, inhibition of HIV-1-luciferase pseudotyped viruses [3] | IC50 (read off the curve), HIV-1-JRFL entry, Donor 1 target cells [4] | IC50 (read off the curve), HIV-1-JRFL entry, Donor 2 target cells [5] | also measured
B1 | 5.6 nM | 3.2 nM | 1.2 nM | 2.4 nM | 1 nM | 22.5 nM | 35.9 nM | 8 nM | 8.5 nM | 8.7 nM | 7.7 nM | 2.2 nM | 9.7 nM | 5.5 nM | 5.2 nM | 8.4 nM | 5.8 nM | 5.8 nM | ~1000 nM | ~800 nM | percent of HIV-1-JRFL entry blocked at the highest concentrations tested (up to 2000 nM) [1]: ≤ 60%; IC50 (read off the curve), HIV-1-JRFL entry, Donor 3 target cells [6]: ~800 nM; Kd [7]: 2.36 nM
B2 | 1 nM | 1.1 nM | 0.6 nM | 1.4 nM | 1.1 nM | 4.4 nM | 5 nM | 2.3 nM | 2.5 nM | 2.2 nM | 2 nM | 1.3 nM | 2.8 nM | 2.2 nM | 1.7 nM | 2.1 nM | 1.7 nM | 1.7 nM | ~100 nM | ~60 nM | fold lower IC50 than 43E2, HIV-1-JRFL entry into activated human T-cells [1]: ≥ 10 fold; fold lower IC50 than 43E2, inhibition of HIV-1 entry into U87/CD4/CCR5 cells [1]: ~3 fold; fold lower IC90 than 43E2, inhibition of HIV-1 entry into U87/CD4/CCR5 cells [1]: ~10 fold; IC50 (read off the curve), HIV-1-JRFL entry, Donor 3 target cells [6]: ~20 nM; fold difference in binding affinity against 43E2 [8]: ~2 fold; Kd [7]: 1.18 nM
